Non-standard residues stand in square brackets, D forms with d. No end group written: not given here.
Columns and labels:
human gpr-54 receptor [1] = molecular target: T1, human gpr-54 receptor (human, UniProt Q969F8 1-398); experiment: whole-cell competition binding against 125I-kisspeptin, CHO cells stably transfected with GPR54 (CPM); the fall of the curve lies between Total and -11 LogM [202]
T1 construct: whole, on cells; CHO cells stably expressing the human gpr-54 receptor came from Prof; G. Vassart; also called kisspeptin receptor; AXOR12
Method: (§1) Cell monolayers were placed on ice and exposed to 0.5 mls peptide (10 pM-1 uM); the cells were then incubated at 4° C. for 4 hr. After 4 hrs, cells were washed twice with ice cold Dulbecco's phosphate buffered saline (DPBS; with Calcium and Magnesium) and then 0.5 mls 0.1M Sodium Hydroxide (NaOH) were added to cells for 20 minutes, shaking to lyse cells. Lysates were transferred to plastic tubes and bound radioactivity counted on the gamma counter for 60 seconds.

human gpr-54 receptor [2] = molecular target: T1, human gpr-54 receptor; experiment: cell-based or functional assay
human gpr-54 receptor [3] = molecular target: T1, human gpr-54 receptor; experiment: cell-based or functional assay; remark: listed apart in the source
human gpr-54 receptor [4] = molecular target: T1, human gpr-54 receptor; experiment: whole-cell competition binding against 125I-kisspeptin, CHO cells stably transfected with GPR54 (CPM); the drawn curve falls between Total and -10 LogM, which does not fit the printed number [207]
human gpr-54 receptor [5] = molecular target: T1, human gpr-54 receptor; experiment: cell-based or functional assay; remark: listed apart in the source
human gpr-54 receptor [6] = molecular target: T1, human gpr-54 receptor; experiment: whole-cell competition binding against 125I-kisspeptin, CHO cells stably transfected with GPR54 (CPM); the fall of the curve lies between Total and -11 LogM [206]
Method: as §1

human gpr-54 receptor [7] = molecular target: T1, human gpr-54 receptor; experiment: whole-cell competition binding against 125I-kisspeptin, CHO cells stably transfected with GPR54 (CPM); the fall of the curve lies between Total and -11 LogM [203]
Method: as §1

human gpr-54 receptor [8] = molecular target: T1, human gpr-54 receptor; experiment: whole-cell competition binding against 125I-kisspeptin, CHO cells stably transfected with human GPR54 (CPM); no lower plateau reached at -5 LogM [211]
Method: as §1

human gpr-54 receptor [9] = molecular target: T1, human gpr-54 receptor; experiment: cell-based or functional assay; remark: listed apart in the source
human gpr-54 receptor [10] = molecular target: T1, human gpr-54 receptor; experiment: whole-cell competition binding against 125I-kisspeptin, CHO cells stably transfected with GPR54 (CPM); the curve falls between Total and -9 LogM [209]
Method: as §1

human gpr-54 receptor [11] = molecular target: T1, human gpr-54 receptor; experiment: cell-based or functional assay; remark: listed apart in the source
human gpr-54 receptor [12] = molecular target: T1, human gpr-54 receptor; experiment: whole-cell competition binding against 125I-kisspeptin, CHO cells stably transfected with GPR54 (CPM) [208]
Method: as §1

human gpr-54 receptor [13] = molecular target: T1, human gpr-54 receptor; experiment: cell-based or functional assay; remark: listed apart in the source
human gpr-54 receptor [14] = molecular target: T1, human gpr-54 receptor; experiment: whole-cell competition binding against 125I-kisspeptin, CHO cells stably transfected with GPR54 (CPM); the fall of the curve lies between Total and -10 LogM [231]
Method: as §1

human gpr-54 receptor [15] = molecular target: T1, human gpr-54 receptor; experiment: cell-based or functional assay; remark: listed apart in the source
human gpr-54 receptor [16] = molecular target: T1, human gpr-54 receptor; experiment: whole-cell competition binding against 125I-kisspeptin, CHO cells stably transfected with GPR54 (CPM) [229]
Method: as §1

human gpr-54 receptor [17] = molecular target: T1, human gpr-54 receptor; experiment: whole-cell competition binding against 125I-kisspeptin, CHO cells stably transfected with GPR54 (CPM); upper curve, no lower plateau reached at -5 LogM [212]
Method: as §1

human gpr-54 receptor [18] = molecular target: T1, human gpr-54 receptor; experiment: cell-based or functional assay; remark: listed apart in the source
human gpr-54 receptor [19] = molecular target: T1, human gpr-54 receptor; experiment: whole-cell competition binding against 125I-kisspeptin, CHO cells stably transfected with GPR54 (CPM) [210]
Method: as §1

human gpr-54 receptor [20] = molecular target: T1, human gpr-54 receptor; experiment: whole-cell competition binding against 125I-kisspeptin, CHO cells stably transfected with GPR54 (CPM); the fall of the curve lies between Total and -10 LogM [228]
Method: as §1

human gpr-54 receptor [21] = molecular target: T1, human gpr-54 receptor; experiment: cell-based or functional assay; remark: listed apart in the source
human gpr-54 receptor [22] = molecular target: T1, human gpr-54 receptor; experiment: whole-cell competition binding against 125I-kisspeptin, CHO cells stably transfected with hGPR54 (CPM); no lower plateau reached at -5 LogM [186]
Method: as §1

human gpr-54 receptor [23] = molecular target: T1, human gpr-54 receptor; experiment: cell-based or functional assay; remark: listed apart in the source

T1 sequence (Q969F8 whole entry): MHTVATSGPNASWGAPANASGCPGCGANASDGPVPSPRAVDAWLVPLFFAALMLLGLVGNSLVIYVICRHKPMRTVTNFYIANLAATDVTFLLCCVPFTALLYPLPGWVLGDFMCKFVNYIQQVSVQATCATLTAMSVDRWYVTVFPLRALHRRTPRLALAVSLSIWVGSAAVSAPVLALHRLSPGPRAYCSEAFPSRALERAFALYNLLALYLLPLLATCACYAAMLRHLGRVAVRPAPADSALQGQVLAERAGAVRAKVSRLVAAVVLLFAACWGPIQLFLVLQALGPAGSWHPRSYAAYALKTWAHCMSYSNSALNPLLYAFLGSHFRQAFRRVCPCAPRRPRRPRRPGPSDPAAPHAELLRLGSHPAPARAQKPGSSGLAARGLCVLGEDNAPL

Binder	IP stimulation (IC50), peptide alone (human gpr-54 receptor [2]) [nM]	Inhibition of IP stimulation by 10nM Agonist: % Inhibition of Max (human gpr-54 receptor [2]) [%]	Inhibition of IP stimulation by 10nM Agonist: IC50 (human gpr-54 receptor [2]) [nM]	other results
Ac-AGLRW-NH2 (kisspeptin-10 analogue; also called acAGLRW) [202]	> 100000	64	10	IC50 (human gpr-54 receptor [1]): 0.00032 nM; IP competition with 10nM kisspeptin-10: IC50 [202] (human gpr-54 receptor [3]): 10 nM; IP dose response, peptide alone: EC50 (unlabelled number beside rising curve; rise only at -5 LogM) [202] (human gpr-54 receptor [3]): 0.00109 M
Ac-FG[dF]RF-NH2 (SMILES CC(=O)N[C@@H](Cc1ccccc1)C(=O)NCC(=O)N[C@H](Cc1ccccc1)C(=O)N[C@@H](CCCNC(=N)N)C(=O)N[C@@H](Cc1ccccc1)C(N)=O, kisspeptin-10 analogue; also called acFG[(D)-F]RF) [207]		0		IC50 (human gpr-54 receptor [4]): 110 nM
Ac-FG[dW]RF-NH2 (SMILES CC(=O)N[C@@H](Cc1ccccc1)C(=O)NCC(=O)N[C@H](Cc1c[nH]c2ccccc12)C(=O)N[C@@H](CCCNC(=N)N)C(=O)N[C@@H](Cc1ccccc1)C(N)=O, kisspeptin-10 analogue; also called acFG[(D)-W]RF) [206]		68	10	IP competition with 10nM kisspeptin-10: IC50 [206] (human gpr-54 receptor [5]): 10 nM; IC50 (human gpr-54 receptor [6]): 0.0352 pM
Ac-[dF]WLRW-NH2 (SMILES CC(=O)N[C@H](Cc1ccccc1)C(=O)N[C@@H](Cc1c[nH]c2ccccc12)C(=O)N[C@@H](CC(C)C)C(=O)N[C@@H](CCCNC(=N)N)C(=O)N[C@@H](Cc1c[nH]c2ccccc12)C(N)=O, kisspeptin-10 analogue; also called ac[F-(D)]WLRW) [203]	150000	71	0.1	IC50 (human gpr-54 receptor [7]): 0.000307 nM; IP competition with 10nM kisspeptin-10: IC50 [203] (human gpr-54 receptor [3]): 0.1 nM; IP dose response, peptide alone: EC50 (unlabelled number beside rising curve; rise only at -5 LogM) [203] (human gpr-54 receptor [3]): 0.000156 M
YNWNGFG[dL]RF-NH2 (N-terminus assumed; SMILES CC(C)C[C@@H](NC(=O)CNC(=O)[C@H](Cc1ccccc1)NC(=O)CNC(=O)[C@H](CC(N)=O)NC(=O)[C@H](Cc1c[nH]c2ccccc12)NC(=O)[C@H](CC(N)=O)NC(=O)[C@@H](N)Cc1ccc(O)cc1)C(=O)N[C@@H](CCCNC(=N)N)C(=O)N[C@@H](Cc1ccccc1)C(N)=O, kisspeptin-10 analogue; also called Peptide 209; YNWNGFG[(D)-L]RF) [209]		81	100	IC50 (human gpr-54 receptor [10]): 0.0157 nM; IP competition with 10nM kisspeptin-10: IC50 [209] (human gpr-54 receptor [11]): 100 nM
YNWNGFGLRF-NH2 (kisspeptin-10 analogue) [208]	45.6	55	1000	IC50 (human gpr-54 receptor [12]): 70.3 nM; Antagonistic assay with kisspeptin-10: IC50 [208] (human gpr-54 receptor [11]): 1000 nM
Ac-NSFGLRF-NH2 (kisspeptin-10 analogue; also called Peptide 186; acNSFGLRF) [186]	150	70		IC50 (human gpr-54 receptor [22]): 1850 nM; IP competition with 10nM kisspeptin-10: IC50 [186] (human gpr-54 receptor [23]): 0.5 nM; IP dose response, peptide alone: EC50 (unlabelled number beside rising curve) [186] (human gpr-54 receptor [23]): 592 nM

The next lines start with results.

IP stimulation (IC50), peptide alone (human gpr-54 receptor [2]) [nM]	Inhibition of IP stimulation by 10nM Agonist: % Inhibition of Max (human gpr-54 receptor [2]) [%]	Inhibition of IP stimulation by 10nM Agonist: IC50 (human gpr-54 receptor [2]) [nM]	Binder	other results
2570	73	1000	YNWNG[dF]GLRF-NH2 (N-terminus assumed; SMILES CC(C)C[C@H](NC(=O)CNC(=O)[C@@H](Cc1ccccc1)NC(=O)CNC(=O)[C@H](CC(N)=O)NC(=O)[C@H](Cc1c[nH]c2ccccc12)NC(=O)[C@H](CC(N)=O)NC(=O)[C@@H](N)Cc1ccc(O)cc1)C(=O)N[C@@H](CCCNC(=N)N)C(=O)N[C@@H](Cc1ccccc1)C(N)=O, kisspeptin-10 analogue; also called YNWNG[(D)-F]GLRF) [211]	IC50 (human gpr-54 receptor [8]): 4320 nM; IP competition with 10nM kisspeptin-10: IC50 [211] (human gpr-54 receptor [9]): 1000 nM
	55	0.1	Ac-YN[dW]NGFG[dW]RF-NH2 (SMILES CC(=O)N[C@@H](Cc1ccc(O)cc1)C(=O)N[C@@H](CC(N)=O)C(=O)N[C@H](Cc1c[nH]c2ccccc12)C(=O)N[C@@H](CC(N)=O)C(=O)NCC(=O)N[C@@H](Cc1ccccc1)C(=O)NCC(=O)N[C@H](Cc1c[nH]c2ccccc12)C(=O)N[C@@H](CCCNC(=N)N)C(=O)N[C@@H](Cc1ccccc1)C(N)=O, kisspeptin-10 analogue; also called acYN[(D)-W]NGFG[(D)-W]RF) [231]	IP competition with 10nM kisspeptin-10: IC50 [231] (human gpr-54 receptor [13]): 0.1 nM; IC50 (human gpr-54 receptor [14]): 0.000564 nM
	68	8000	Ac-YNWN[dW]FG[dW]RF-NH2 (SMILES CC(=O)N[C@@H](Cc1ccc(O)cc1)C(=O)N[C@@H](CC(N)=O)C(=O)N[C@@H](Cc1c[nH]c2ccccc12)C(=O)N[C@@H](CC(N)=O)C(=O)N[C@H](Cc1c[nH]c2ccccc12)C(=O)N[C@@H](Cc1ccccc1)C(=O)NCC(=O)N[C@H](Cc1c[nH]c2ccccc12)C(=O)N[C@@H](CCCNC(=N)N)C(=O)N[C@@H](Cc1ccccc1)C(N)=O, kisspeptin-10 analogue; also called acYNWN[(D)-W]FG[(D)-W]RF) [229]	IP competition with 10nM kisspeptin-10: IC50 [229] (human gpr-54 receptor [15]): 8000 nM; IC50 (human gpr-54 receptor [16]): 1.17 nM
300000	88	< 0.1	YNWNG[dW]GLRF-NH2 (N-terminus assumed; SMILES CC(C)C[C@H](NC(=O)CNC(=O)[C@@H](Cc1c[nH]c2ccccc12)NC(=O)CNC(=O)[C@H](CC(N)=O)NC(=O)[C@H](Cc1c[nH]c2ccccc12)NC(=O)[C@H](CC(N)=O)NC(=O)[C@@H](N)Cc1ccc(O)cc1)C(=O)N[C@@H](CCCNC(=N)N)C(=O)N[C@@H](Cc1ccccc1)C(N)=O, kisspeptin-10 analogue; also called YNWNG[(D)-W]GLRF) [212]	IC50 (human gpr-54 receptor [17]): 6330 nM; IP competition with 10nM kisspeptin-10: IC50 [212] (human gpr-54 receptor [18]): < 0.1 nM; IP dose response, peptide alone: EC50 (unlabelled number beside rising curve; rise only at -5 LogM) [212] (human gpr-54 receptor [18]): 0.000205 M
	64	< 0.1	YNWNGFG[dW]RF-NH2 (kisspeptin-10 analogue; also called compound 210) [210]	IP competition with 10nM kisspeptin-10: IC50 [210] (human gpr-54 receptor [9]): < 0.1 nM; IC50 (human gpr-54 receptor [19]): 1300 nM
	58	50	Ac-YNWNGFG[dW]RF-NH2 (SMILES CC(=O)N[C@@H](Cc1ccc(O)cc1)C(=O)N[C@@H](CC(N)=O)C(=O)N[C@@H](Cc1c[nH]c2ccccc12)C(=O)N[C@@H](CC(N)=O)C(=O)NCC(=O)N[C@@H](Cc1ccccc1)C(=O)NCC(=O)N[C@H](Cc1c[nH]c2ccccc12)C(=O)N[C@@H](CCCNC(=N)N)C(=O)N[C@@H](Cc1ccccc1)C(N)=O, kisspeptin-10 analogue; also called acYNWNGFG[(D)-W]RF) [228]	IC50 (human gpr-54 receptor [20]): 0.00655 nM; IP competition with 10nM kisspeptin-10: IC50 [228] (human gpr-54 receptor [21]): 50 nM

From patent US20110046068A1 (MEDICAL RESEARCH COUNCIL, published 2011)
